Positions count from the first letter of the chain named. Names and notes keep the numbering of the source.
B1: H183/L072 VH D52aG (antibody, name in Kabat numbering, V domains shown)
VH: QVQLVESGGGLVQPGRSLRLSCAASGFTFSNAWMHWVRQAPGKGLEWVAQIKGKGNAYAAYYAPSVKGRFTISRDDSKNSIYLQMNSLKTEDTAVYYCHYVHYASASTVLPAFGVDAWGQGTTVTVSS
VL: DIVMTQSPLSLPVTPGEPASISCQASQELVHMNRNTYLHWYQQKPGQAPRLLIYKVSNRFPGVPDRFSGSGSGTDFTLKISRVEAEDVGVYYCAQGTSVPFTFGQGTKLEIK
B2: H183/L072 VH D52aH (antibody, name in Kabat numbering, V domains shown)
VH: B1 VH with G53H
VL: B1 VL
B3: H183/L072 VH D52aI (antibody, name in Kabat numbering, V domains shown)
VH: B1 VH with G53I
VL: B1 VL
B4: H183/L072 VH D52aK (antibody, name in Kabat numbering, V domains shown)
VH: B1 VH with G53K
VL: B1 VL
B5: H183/L072 VH D52aL (antibody, name in Kabat numbering, V domains shown)
VH: B1 VH with G53L
VL: B1 VL
B6: H183/L072 VH D52aM (antibody, name in Kabat numbering, V domains shown)
VH: B1 VH with G53M
VL: B1 VL
B7: H183/L072 VH D52aN (antibody, name in Kabat numbering, V domains shown)
VH: B1 VH with G53N
VL: B1 VL
B8: H183/L072 VH D52aP (antibody, name in Kabat numbering, V domains shown)
VH: B1 VH with G53P
VL: B1 VL
B9: H183/L072 VH D52aQ (antibody, name in Kabat numbering, V domains shown)
VH: B1 VH with G53Q
VL: B1 VL
B10: H183/L072 VH D52aR (antibody, name in Kabat numbering, V domains shown)
VH: B1 VH with G53R
VL: B1 VL
B11: H183/L072 VH D52aS (antibody, name in Kabat numbering, V domains shown)
VH: B1 VH with G53S
VL: B1 VL
B12: H183/L072 VH D52aT (antibody, name in Kabat numbering, V domains shown)
VH: B1 VH with G53T
VL: B1 VL
B13: H183/L072 VH D52aV (antibody, name in Kabat numbering, V domains shown)
VH: B1 VH with G53V
VL: B1 VL
B14: H183/L072 VH D52aW (antibody, name in Kabat numbering, V domains shown)
VH: B1 VH with G53W
VL: B1 VL
B15: H183/L072 VH D52aY (antibody, name in Kabat numbering, V domains shown)
VH: B1 VH with G53Y
VL: B1 VL
B16: H183/L072 VH D101A (antibody, name in Kabat numbering, V domains shown)
VH: B1 VH with G53D, D116A
VL: B1 VL
B17: H183/L072 VH D101I (antibody, name in Kabat numbering, V domains shown)
VH: B1 VH with G53D, D116I
VL: B1 VL
B18: H183/L072 VH D101L (antibody, name in Kabat numbering, V domains shown)
VH: B1 VH with G53D, D116L
VL: B1 VL
B19: H183/L072 VH D101M (antibody, name in Kabat numbering, V domains shown)
VH: B1 VH with G53D, D116M
VL: B1 VL
B20: H183/L072 VH D101P (antibody, name in Kabat numbering, V domains shown)
VH: B1 VH with G53D, D116P
VL: B1 VL
B21: H183/L072 VH F27A (antibody, name in Kabat numbering, V domains shown)
VH: B1 VH with F27A, G53D
VL: B1 VL
B22: H183/L072 VH F27D (antibody, name in Kabat numbering, V domains shown)
VH: B1 VH with F27D, G53D
VL: B1 VL
B23: H183/L072 VH F27E (antibody, name in Kabat numbering, V domains shown)
VH: B1 VH with F27E, G53D
VL: B1 VL
B24: H183/L072 VH F27G (antibody, name in Kabat numbering, V domains shown)
VH: B1 VH with F27G, G53D
VL: B1 VL
B25: H183/L072 VH F27H (antibody, name in Kabat numbering, V domains shown)
VH: B1 VH with F27H, G53D
VL: B1 VL
B26: H183/L072 VH F27I (antibody, name in Kabat numbering, V domains shown)
VH: B1 VH with F27I, G53D
VL: B1 VL
B27: H183/L072 VH F27K (antibody, name in Kabat numbering, V domains shown)
VH: B1 VH with F27K, G53D
VL: B1 VL
B28: H183/L072 VH F27L (antibody, name in Kabat numbering, V domains shown)
VH: B1 VH with F27L, G53D
VL: B1 VL
B29: H183/L072 VH F27M (antibody, name in Kabat numbering, V domains shown)
VH: B1 VH with F27M, G53D
VL: B1 VL
B30: H183/L072 VH F27N (antibody, name in Kabat numbering, V domains shown)
VH: B1 VH with F27N, G53D
VL: B1 VL
B31: H183/L072 VH F27P (antibody, name in Kabat numbering, V domains shown)
VH: B1 VH with F27P, G53D
VL: B1 VL
B32: H183/L072 VH F27Q (antibody, name in Kabat numbering, V domains shown)
VH: B1 VH with F27Q, G53D
VL: B1 VL
B33: H183/L072 VH F27R (antibody, name in Kabat numbering, V domains shown)
VH: B1 VH with F27R, G53D
VL: B1 VL

Target: T1, Human CD3eg linker (human)
T1 construct: Single chain: epsilon and gamma subunits of human CD3 joined by a 29-mer linker, Flag-tag at the C-terminus; also called recombinant human CD3
T1 chain: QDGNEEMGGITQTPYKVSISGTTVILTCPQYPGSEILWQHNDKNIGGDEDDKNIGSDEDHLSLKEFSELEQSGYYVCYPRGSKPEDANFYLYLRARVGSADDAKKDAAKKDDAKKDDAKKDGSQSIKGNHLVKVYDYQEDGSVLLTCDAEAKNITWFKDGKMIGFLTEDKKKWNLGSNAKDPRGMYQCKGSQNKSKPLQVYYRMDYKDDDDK
Test: Biacore SPR, vs template H183/L072

| Binder | fold change of affinity |
| --- | --- |
| B1 | 0.2 fold |
| B2 | 0.3 fold |
| B3 | 0 fold |
| B4 | 0 fold |
| B5 | 0 fold |
| B6 | 0 fold |
| B7 | 0.1 fold |
| B8 | 0 fold |
| B9 | 0 fold |
| B10 | 0 fold |
| B11 | 0 fold |
| B12 | 0 fold |
| B13 | 0 fold |
| B14 | 0 fold |
| B15 | 0 fold |
| B16 | 0.8 fold |
| B17 | 0.6 fold |

| Binder | fold change of affinity |
| --- | --- |
| B18 | 2.3 fold |
| B19 | 0.7 fold |
| B20 | 0 fold |
| B21 | 0.2 fold |
| B22 | 0 fold |
| B23 | 0 fold |
| B24 | 0.5 fold |
| B25 | 0.1 fold |
| B26 | 0.6 fold |
| B27 | 0.3 fold |
| B28 | 0.4 fold |
| B29 | 0.5 fold |
| B30 | 0.4 fold |
| B31 | 0 fold |
| B32 | 0 fold |
| B33 | 0.2 fold |
